Experimental data as given in US20250325718A1, “IMMUNOCONJUGATES COMPRISING KALLIKREIN RELATED PEPTIDASE 2 ANTIGEN BINDING DOMAINS AND THEIR USES” (Janssen Biotech, Inc., priority 2021, published 2025).

Experiment: DTPA challenge of Ac-225 labeled TOPA-[C7]-phenylthiourea-h11B6 (iTLC)
Assay type: physicochemical
Settings: for DTPA challenge: chelated Ac-225 (iTLC): labeling reaction mixture, 10 mM DTPA pH 6.5, 37° C., 30 min
Procedure: 0.5 μL of the labeling reaction mixture was also mixed with 10 mM DTPA (pH=6.5, 15 μL) at 37° C. After 30 min, 10 μL of the mixture was spotted on iTLC-SG and developed by 10 mM EDTA. The dried iTLC-SG was left at room temperature for overnight before it was scanned on a Bioscan AR-2000 radio-TLC scanner. Under the elution conditions described herein, TOPA-[C7]-phenylthiourea-h11B6 chelated Ac-225 ^st ayed at the origin and any free Ac-225 would migrate with the solvent to the solvent front.
10 μL of fraction #3 collected after PD-10 column was mixed with 15 μL of 10 mM DTPA solution (pH 6.5), and incubated for 30 min. 10 μL of the mixture was loaded onto an iTLC-SG, which was developed with 10 mM EDTA and dried overnight. It was scanned on a Bioscan AR-2000 radio-TLC scanner.

[1] = 25 mM NaOAc, 0.04% PS-20, pH 5.5 (conjugate 10.4 mg/mL)
[2] = 1.0M NaOAc, 0.04% PS-20 (conjugate 9.36 mg/mL)
[3] = 1.5M NaOAc, 0.04% PS-20 (conjugate 9.36 mg/mL)
[4] = 3M NaOAc buffer (conjugate […])

Substance | DTPA challenge of the purified conjugate: free Ac-225 (iTLC) (fraction #3 after PD-10 column, 10 mM DTPA pH 6.5, 30 min) | DTPA challenge: chelated Ac-225 (iTLC) [1] | DTPA challenge: chelated Ac-225 (iTLC) [2] | DTPA challenge: chelated Ac-225 (iTLC) [3] | DTPA challenge: chelated Ac-225 (iTLC) [4]
Ac-225 labeled TOPA-[C7]-phenylthiourea-h11B6 antibody conjugate [Example 21] | no free Ac-225 | 99.8% | 99.9% | 99.9% | 99.7%
TOPA-[C7]-phenylthiourea-h11B6 Antibody Conjugate [Example 20] |  | >99% | >99% | >99% | >99%
